{
  "source": "patent US20250295734A1",
  "about": "“ANTICOAGULANT PROTEINS AND THEIR USE FOR TREATING DISEASES ASSOCIATED WITH THE ACTIVATION OF NEUTROPHILS” (BIOXODES, priority 2018, published 2025)",
  "molecules": {"B1": {"name": "Ir-CPI: Ixodes ricinus salivary gland polypeptide, contact phase inhibitor, MW=7660 Da; sequence SEQ ID NO: 1 or SEQ ID NO: 2 (protein)", "chain": "ANHKGRGRPAKCKLPPDDGPCRARIPSYYFDRKTKTCKEFMYGGCEGNENNFENITTCQEECRAKKV"}},
  "key": {"[1]": {"assay": "Distribution and elimination of Ir-CPI in the mice", "type": "in vivo", "description": "Ir-CPI was administered intravenously as a bolus (20.5 mg/kg) immediately followed by a continuous infusion at a rate of 3.7 mg/kg/h (see Table 1 below). Due to fast distribution and elimination of Ir-CPI in the mice (t1/2α=14 min and t1/2β=236 min), the combination of the bolus and the infusion was chosen in order to maintain a constant Ir-CPI concentration into the blood."}, "human washed platelets": {"test_system": "human washed platelets", "assay": "In vitro platelet aggregation assay", "type": "cell-based", "description": "Blood from healthy human donors, who had not taken anti-platelet agents within the 15 days prior to collection, was collected in citrated tubes and centrifuged for 13 min at 200 g. The platelet-rich plasma was collected and centrifuged for 13 min at 900 g in Tyrode buffer (138 mM NaCl, 2.9 mM KCl, 12 mM NaHCO3, 5.5 mM glucose, 1.8 mM CaCl2 and 0.4 mM MgCl2, pH 7.4) containing 0.2% BSA, apyrase 0.02 U/mL and PGI2 500 nM. Washed platelets were resuspended in the Tyrode/BSA 0.2%/apyrase/PGI2 solution and centrifuged at 900 g for 13 min. Platelets were resuspended in a Tyrode/BSA 0.2% solution at a concentration of 3.10^8 platelets/mL. Platelets were kept at 37° C. for 30 min in a solution containing […]. Next, platelets were incubated at 37° C. under agitation for 5 to 10 minutes in an aggregometer APACT 4004 with ADP (adenosine diphosphate), TRAP (Thrombin Receptor-Activating Peptide) and/or Ir-CPI.\nThe effect of Ir-CPI on platelet aggregation was assessed in vitro by using isolated human washed platelets (n=1)."}, "[2]": {"assay": "Tail bleeding time assessment", "type": "in vivo, mice (C57BL/6JRj)", "description": "Tail bleeding time assessment under NaCl or Ir-CPI treatment (Low or High dose) was performed as previously described (Mezouar et al., 2015) on anesthetized wild-type (i.e. cancer-free) or cancer-bearing mice. Briefly, a 1- to 3-mm portion of the distal tail was removed from mice; the tail was immersed in isotonic saline (37° C.), and the time to complete cessation of blood flow recorded. The bleeding time was monitored for a maximum of 10 min."}, "human neutrophils": {"test_system": "human neutrophils", "assay": "Phagocytosis assay with pHrodo E. coli bioparticles", "type": "cell-based", "conditions": "for neutrophil phagocytic activity: 3 donors", "description": "The effect of Ir-CPI on the phagocytic activity of human neutrophils was assessed. For this purpose, freshly isolated neutrophils from 3 donors were pre-treated for 1 h with recombinant Ir-CPI at 2 different concentrations (5.0 or 15.3 μg/mL) and then incubated in the presence of pH-rodo® E. coli bioparticles (Sartorius). To evaluate the phagocytic activity, fluorescence was monitored every 15 min for up to 48 hours.\nNeutrophils were directly isolated from whole blood by using the EasySep™ Direct Human Neutrophil Isolation Kit (StemCell) and according to the manufacturer's protocol. The purification is a negative selection (elimination of unwanted cell populations) to obtain intact neutrophils.\npHrodo® Green E. coli Bioparticles were resuspended at 1 mg/mL in PBS, vortexed and sonicated according to the manufacturer's protocol and then stored at 4° C. overnight. Then, 25.000 freshly isolated neutrophils, resuspended in RPMI 1640 medium containing 10% of FBS and supplements (2 mM Glutamine, 1% NEAA, 1 mM Sodium pyruvate, 50 μM B-mercaptoethanol and 50 μg/ml Gentamycin), were seeded per well in a 96 well-plate and preincubated for 1 h at 37° C., 5% CO2 with Ir-CPI at two different concentrations (2 μM and 0.65 μM). Then, pHrodo® Green E. coli Bioparticles were added at 10 μg/well and the plate was incubated in the Incucyte® Live-Cell Analysis System. Pictures were taken every 15 minutes for 48 hours. Two negative controls were performed: (1) only the neutrophils were seeded in absence of Ir-CPI and without particles, and (2) neutrophils were seeded in absence of Ir-CPI and incubated with the particles. All conditions were performed in triplicates.\nTo analyse neutrophil phagocytosis, the Green total area (μm2/image) was measured in each well every 15 minutes for 48 hours (2 pictures/well). Briefly, the IncuCyte® Basic Analysis software allows for the quantification of fluorescent object metrics in real-time. […]"}, "Factor XIIa": {"biological_target": "T1, Factor XIIa (Homo sapiens, UniProt P00748)", "T1 construct": "The resulting α-FXIIa has a heavy chain of 50 kDa, connected to a light chain of 28 kDa", "T1 sequence (P00748 20-372 limits assumed)": "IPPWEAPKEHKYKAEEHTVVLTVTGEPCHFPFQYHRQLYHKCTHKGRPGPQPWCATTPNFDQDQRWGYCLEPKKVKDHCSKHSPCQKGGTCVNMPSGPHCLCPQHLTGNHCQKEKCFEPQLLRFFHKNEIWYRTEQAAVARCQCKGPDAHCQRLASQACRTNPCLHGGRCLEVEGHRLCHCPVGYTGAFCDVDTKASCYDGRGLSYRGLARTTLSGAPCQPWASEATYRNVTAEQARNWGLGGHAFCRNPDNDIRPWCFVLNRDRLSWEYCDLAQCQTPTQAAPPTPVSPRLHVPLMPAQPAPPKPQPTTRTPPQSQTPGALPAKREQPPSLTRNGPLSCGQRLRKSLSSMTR", "T1 sequence (P00748 373-615 limits assumed)": "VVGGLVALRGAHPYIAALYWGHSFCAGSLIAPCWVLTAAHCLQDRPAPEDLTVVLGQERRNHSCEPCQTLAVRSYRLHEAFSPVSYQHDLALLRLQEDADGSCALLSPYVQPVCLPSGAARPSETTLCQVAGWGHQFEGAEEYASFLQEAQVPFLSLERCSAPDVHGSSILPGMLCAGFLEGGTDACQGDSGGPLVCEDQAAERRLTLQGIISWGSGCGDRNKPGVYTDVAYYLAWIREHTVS", "conditions": "cited from earlier work"}, "plasmin": {"biological_target": "plasmin (Homo sapiens, UniProt P00747)", "sequence (P00747 97-580 limits assumed, species assumed)": "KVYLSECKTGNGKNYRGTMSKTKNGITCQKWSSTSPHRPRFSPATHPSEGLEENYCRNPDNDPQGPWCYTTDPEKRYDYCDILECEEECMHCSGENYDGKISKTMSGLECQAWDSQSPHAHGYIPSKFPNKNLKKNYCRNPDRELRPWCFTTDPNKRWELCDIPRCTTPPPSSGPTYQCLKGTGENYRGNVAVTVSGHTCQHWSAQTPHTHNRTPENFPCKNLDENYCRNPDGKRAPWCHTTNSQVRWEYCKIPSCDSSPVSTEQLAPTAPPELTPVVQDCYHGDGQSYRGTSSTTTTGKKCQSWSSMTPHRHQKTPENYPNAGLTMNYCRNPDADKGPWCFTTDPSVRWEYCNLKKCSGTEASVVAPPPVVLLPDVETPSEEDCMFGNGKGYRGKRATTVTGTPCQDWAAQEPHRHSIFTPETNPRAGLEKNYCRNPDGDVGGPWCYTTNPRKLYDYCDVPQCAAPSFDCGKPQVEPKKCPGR", "sequence (P00747 581-810 limits assumed, species assumed)": "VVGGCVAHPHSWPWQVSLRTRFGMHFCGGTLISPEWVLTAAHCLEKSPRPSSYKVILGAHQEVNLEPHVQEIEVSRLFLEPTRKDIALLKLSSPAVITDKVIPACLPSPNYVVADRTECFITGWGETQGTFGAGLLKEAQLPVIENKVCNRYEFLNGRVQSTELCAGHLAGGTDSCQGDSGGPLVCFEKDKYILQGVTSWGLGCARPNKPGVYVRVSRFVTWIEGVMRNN", "conditions": "cited from earlier work"}, "FXI": {"biological_target": "FXI (Homo sapiens, UniProt P03951)", "conditions": "cited from earlier work"}, "[3]": {"conditions": "Ir-CPI 500 μg/100 μL injected alone and then TRAP 20 μM at about 230 sec"}, "[4]": {"conditions": "TRAP 20 μM + Ir-CPI 500 μg/100 μL injected together"}, "[5]": {"conditions": "agent alone (TRAP 20 μM, ADP 20 μM or Ir-CPI 500 μg/100 μL), n=1"}},
  "note": "Where “and” joins values, the source holds several entries; their conditions need not be identical. Identical values can stand only once. Entries after “also recorded” stand apart in the source; their conditions may differ.",
  "data": [
    {"molecule": "B1", "values": [
      {"measurement": "t1/2α", "setting": "[1]", "value": 0.233, "unit": "h"},
      {"measurement": "t1/2β", "setting": "[1]", "value": 3.93, "unit": "h"},
      {"measurement": "Aggregation Latency", "setting": "human washed platelets; [3]", "value": 231.2, "unit": "s"},
      {"measurement": "Aggregation Max", "setting": "human washed platelets; [3]", "value": 73.5, "unit": "%"},
      {"measurement": "Aggregation Slope", "setting": "human washed platelets; [3]", "value": 31.1, "unit": "%/min"},
      {"measurement": "activation of platelet aggregation", "setting": "human washed platelets; Ir-CPI alone added to washed platelets", "value": "did not activate platelet aggregation"},
      {"measurement": "effect on TRAP-induced platelet aggregation", "setting": "human washed platelets; Ir-CPI and TRAP, compared to TRAP alone", "value": "did not significantly modify platelet aggregation; also recorded: does not inhibit platelet aggregation"},
      {"measurement": "Aggregation Latency", "setting": "human washed platelets; [4]", "value": 98.6, "unit": "s"},
      {"measurement": "Aggregation Max", "setting": "human washed platelets; [4]", "value": "71.7% and 71.8%"},
      {"measurement": "Aggregation Slope", "setting": "human washed platelets; [4]", "value": 35.1, "unit": "%/min"},
      {"measurement": "Aggregation Latency", "setting": "human washed platelets; [5]", "value": 70.0, "unit": "s"},
      {"measurement": "Aggregation Max", "setting": "human washed platelets; [5]", "value": 4.1, "unit": "%"},
      {"measurement": "Aggregation Slope", "setting": "human washed platelets; [5]", "value": 16.2, "unit": "%/min"},
      {"measurement": "tail bleeding time compared to NaCl-treated mice", "setting": "[2]; High dose (20.5 mg/kg + 3.7 mg/kg/h), cancer-bearing mice", "value": "No significant effect"},
      {"measurement": "tail bleeding time compared to NaCl-treated mice", "setting": "[2]; High dose (20.5 mg/kg + 3.7 mg/kg/h), cancer-free mice", "value": "No significant effect"},
      {"measurement": "tail bleeding time compared to NaCl-treated mice", "setting": "[2]; Low dose (10.3 mg/kg + 1.9 mg/kg/h), cancer-bearing mice", "value": "No significant effect"},
      {"measurement": "tail bleeding time compared to NaCl-treated mice", "setting": "[2]; Low dose (10.3 mg/kg + 1.9 mg/kg/h), cancer-free mice", "value": "No significant effect"},
      {"measurement": "neutrophil phagocytic activity", "setting": "human neutrophils; recombinant Ir-CPI 5.0 μg/mL (0.65 μM)", "value": "no evidence for an effect"},
      {"measurement": "neutrophil phagocytic activity", "setting": "human neutrophils; recombinant Ir-CPI 15.3 μg/mL (2 μM)", "value": "marginal (p-value just below threshold for significance) evidence for an increase"},
      {"measurement": "decrease of the phagocytic activity of human neutrophils", "setting": "human neutrophils; whatever the concentration", "value": "did not induce a decrease"},
      {"measurement": "activation of Factor XI by Factor XIIa", "setting": "Factor XIIa", "value": "inhibit activation"},
      {"measurement": "activation of PK by Factor XIIa", "setting": "Factor XIIa", "value": "inhibit activation"},
      {"measurement": "binding to plasmin", "setting": "plasmin", "value": "binds"},
      {"measurement": "binding to FXI zymogen", "setting": "FXI", "value": "but not to their zymogen forms; also recorded: unable to bind"}
    ]}
  ]
}
